Source: patent US20250215059A1 (REGENTS OF THE UNIVERSITY OF COLORADO A BODY CORPORATE, published 2025)

B1: Frag_0-Halo (SRRM2 a.a. 2651-2752) (other)
chain: PAKPGPQALPKPASPKKPPPGERRSRSPRKPIDSLRDSRSLSYSPVERRRPSPQPSPRDQQSSSSERGSRRGQRGDSRSPSHKRRRETPSPRPMRHRSSRSPMAEIGTGFPFDPHYVEVLGERMHYVDVGPRDGTPVLFLHGNPTSSYVWRNIIPHVAPTHRCIAPDLIGMGKSDKPDLGYFFDDHVRFMDAFIEALGLEEVVLVIHDWGSALGFHWAKRNPERVKGIAFMEFIRPIPTWDEWPEFARETFQAFRTTDVGRKLIIDQNVFIEGTLPMGVVRPLTEVEMDHYREPFLNPVDREPLWRFPNELPIAGEPANIVALVEEYMDWLHQSPVPKLLFWGTPGVLIPPAEAARLAKSLPNCKAVDIGPGLNLLQEDNPDLIGSEIARWLSTLEISG
modifications: JF646 Halo ligand covalently bound to the Halo tag
notes: PCR amplified from the SRRM2_FL-Halo cell line and expressed from a pcDNA plasmid with an added start codon
B2: Halo alone (other)
chain: MAEIGTGFPFDPHYVEVLGERMHYVDVGPRDGTPVLFLHGNPTSSYVWRNIIPHVAPTHRCIAPDLIGMGKSDKPDLGYFFDDHVRFMDAFIEALGLEEVVLVIHDWGSALGFHWAKRNPERVKGIAFMEFIRPIPTWDEWPEFARETFQAFRTTDVGRKLIIDQNVFIEGTLPMGVVRPLTEVEMDHYREPFLNPVDREPLWRFPNELPIAGEPANIVALVEEYMDWLHQSPVPKLLFWGTPGVLIPPAEAARLAKSLPNCKAVDIGPGLNLLQEDNPDLIGSEIARWLSTLEISG
modifications: JF646 Halo ligand covalently bound
notes: Control without a targeting motif; also called Halo tag; Halo protein
B3: Halo tagged 10 serine repeat (other)
chain: SSSSSSSSSSMAEIGTGFPFDPHYVEVLGERMHYVDVGPRDGTPVLFLHGNPTSSYVWRNIIPHVAPTHRCIAPDLIGMGKSDKPDLGYFFDDHVRFMDAFIEALGLEEVVLVIHDWGSALGFHWAKRNPERVKGIAFMEFIRPIPTWDEWPEFARETFQAFRTTDVGRKLIIDQNVFIEGTLPMGVVRPLTEVEMDHYREPFLNPVDREPLWRFPNELPIAGEPANIVALVEEYMDWLHQSPVPKLLFWGTPGVLIPPAEAARLAKSLPNCKAVDIGPGLNLLQEDNPDLIGSEIARWLSTLEISG
modifications: JF646 Halo ligand covalently bound to the Halo tag
notes: also called 10-serines
B4: SRRM2 C-terminus-TNPO3-halo (other)
chain: MEGAKPTLQLVYQAVQALYHDPDPSGKERASFWLGELQRSVHAWEISDQLLQIRQDVESCYFAAQTMKMKIQTSFYELPTDSHASLRDSLLTHIQNLKDLSPVIVTQLALAIADLALQMPSWKGCVQTLVEKYSNDVTSLPFLLEILTVLPEEVHSRSLRIGANRRTEIIEDLAFYSSTVVSLLMTCVEKAGTDEKMLMKVFRCLGSWFNLGVLDSNFMANNKLLALLFEVLQQDKTSSNLHEAASDCVCSALYAIENVETNLPLAMQLFQGVLTLETAYHMAVAREDLDKVLNYCRIFTELCETFLEKIVCTPGQGLGDLRTLELLLICAGHPQYEVVEISFNFWYRLGEHLYKTNDEVIHGIFKAYIQRLLHALARHCQLEPDHEGVPEETDDFGEFRMRVSDLVKDLIFLIGSMECFAQLYSTLKEGNPPWEVTEAVLFIMAAIAKSVDPENNPTLVEVLEGVVRLPETVHTAVRYTSIELVGEMSEVVDRNPQFLDPVLGYLMKGLCEKPLASAAAKAIHNICSVCRDHMAQHFNGLLEIARSLDSFLLSPEAAVGLLKGTALVLARLPLDKITECLSELCSVQVMALKKLLSQEPSNGISSDPTVFLDRLAVIFRHTNPIVENGQTHPCQKVIQEIWPVLSETLNKHRADNRIVERCCRCLRFAVRCVGKGSAALLQPLVTQMVNVYHVHQHSCFLYLGSILVDEYGMEEGCRQGLLDMLQALCIPTFQLLEQQNGLQNHPDTVDDLFRLATRFIQRSPVTLLRSQVVIPILQWAIASTTLDHRDANCSVMRFLRDLIHTGVANDHEEDFELRKELIGQVMNQLGQQLVSQLLHTCCFCLPPYTLPDVAEVLWEIMQVDRPTFCRWLENSLKGLPKETTVGAVTVTHKQLTDFHKQVTSAEECKQVCWALRDFTRLFRGTELGSTSPVWWNSADIQSRCLIAQTTPVAGSQSLSSGAVATTTSSAGDHNGMLSVPAPGVPHSDVGEPPASTGAQQPSALAALQPAKERRSSSSSSSSSSSSSSSSSSSSSSSSSGSSSSDSEGSSLPVQPEVALKRVPSPTPAPKEAVREGRPPEPTPAKRKRRSSSSSSSSSSSSSSSSSSSSSSSSSSSSSSSSSSSSSSSSSSPSPAKPGPQALPKPASPKKPPPGERRSRSPRKPIDSLRDSRSLSYSPVERRRPSPQPSPRDQQSSSSERGSRRGQRGDSRSPSHKRRRETPSPRPMRHRSGGSGGSGGGSEIGTGFPFDPHYVEVLGERMHYVDVGPRDGTPVLFLHGNPTSSYVWRNIIPHVAPTHRCIAPDLIGMGKSDKPDLGYFFDDHVRFMDAFIEALGLEEVVLVIHDWGSALGFHWAKRNPERVKGIAFMEFIRPIPTWDEWPEFARETFQAFRTTDVGRKLIIDQNVFIEGTLPMGVVRPLTEVEMDHYREPFLNPVDREPLWRFPNELPIAGEPANIVALVEEYMDWLHQSPVPKLLFWGTPGVLIPPAEAARLAKSLPNCKAVDIGPGLNLLQEDNPDLIGSEIARWLSTLEISG
B5: Halo tagged 5 serine repeat (other)
chain: SSSSSMAEIGTGFPFDPHYVEVLGERMHYVDVGPRDGTPVLFLHGNPTSSYVWRNIIPHVAPTHRCIAPDLIGMGKSDKPDLGYFFDDHVRFMDAFIEALGLEEVVLVIHDWGSALGFHWAKRNPERVKGIAFMEFIRPIPTWDEWPEFARETFQAFRTTDVGRKLIIDQNVFIEGTLPMGVVRPLTEVEMDHYREPFLNPVDREPLWRFPNELPIAGEPANIVALVEEYMDWLHQSPVPKLLFWGTPGVLIPPAEAARLAKSLPNCKAVDIGPGLNLLQEDNPDLIGSEIARWLSTLEISG
modifications: JF646 Halo ligand covalently bound to the Halo tag
notes: also called 5-serines

Columns and labels:
[1] = biological target: T1, tau aggregates in HEK293 tau biosensor cells (4R repeat domain of tau (K18) with the P301S mutation fused to … (UniProt P10636-8 244-372)); experiment: Halo (JF646) imaging; intensity in aggregate over adjacent region, five aggregates
T1 construct: domain: 4R repeat domain of tau (K18); Aggregated, insoluble form inside cells; the aggregates are seeded with brain homogenate of tau transgenic mice and may hold other proteins and RNA; Number of chains in an aggregate not defined; also called cytoplasmic tau aggregates; nuclear tau aggregates; not shown: CFP or YFP fused to the repeat domain

[2] = biological target: T1, tau aggregates in HEK293 tau biosensor …; experiment: Halo (JF646) imaging in seeded HEK293 tau biosensor cells
[3] = biological target: T1, tau aggregates in HEK293 tau biosensor …; experiment: Halo (JF646) imaging; intensity in aggregate over adjacent region, 5 aggregates
[4] = biological target: T1, tau aggregates in HEK293 tau biosensor …; experiment: cell-based or functional assay

T1 sequence (P10636 561-689 P618S): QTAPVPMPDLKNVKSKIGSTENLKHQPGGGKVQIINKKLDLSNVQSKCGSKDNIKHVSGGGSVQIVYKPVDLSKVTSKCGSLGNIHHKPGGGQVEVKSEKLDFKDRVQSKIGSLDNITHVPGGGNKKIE

Binder | mean enrichment in cytoplasmic tau aggregates [1] | binding result [2] | mean enrichment in cytoplasmic tau aggregates [3] | tau aggregation by flow cytometry (FRET+ cells and integrated FRET density, normalized to no insert Halo) [4]
B1 | 1.1 ratio | no binding | – | –
B2 | 1.08 ratio | no binding | – | –
B3 | – | – | 1.05 ratio | –
B4 | – | – | – | ~50 % decrease
B5 | – | – | 0.95 ratio | –
